Data taken from patent US20170260266A1.
Changes are numbered by the printed parent chain. Values joined by “and” are separate entries in the source; they are usually repeats but may differ in a detail not shown here. Equal values may be shown once.

B1: DOM30h-440-57 (protein)
VL: DIQMTQSPSSLSASVGDRVTITCRASRPIRNWLDWYQQKPGKAPELLIWGASHLQSGVPSRFSGSGSGTDFTLTISSLQPEDFATYYCMQIGDDPVTFGQGTKVEIKR
B2: DOM30h-440-81/86 (protein)
VL: DIQMTQSPSSLSASVGDRVTITCRASRPIRNWLDWYQQKPGKAPKLLIWGASHLQSGVPSRFSGSGSGTDFTLTISSLQPEDFATYYCVQIGEDPVTFGQGTKVEIK
B3: DOM30h-440-60 (protein)
VL: B1 VL with E45K, M89I, I91F, D93E
B4: DOM30h-440-63 (protein)
VL: B1 VL with E45K, D93S
B5: DOM30h-440-53 (protein)
VL: B1 VL with E45K, M89L, I91V, D93E
B6: DOM30h-440-54 (protein)
VL: B1 VL with E45K, M89W, I91L, G92A, D93F, V96T
B7: DOM30h-440-65 (protein)
VL: B1 VL with E45K, D93E
B8: DOM30h-440-58 (protein)
VL: B1 VL with E45K, M89L, G92A
B9: DOM30h-440-64 (protein)
VL: B1 VL with E45K, M89L, D93E
B10: DOM30h-440-56 (protein)
VL: B1 VL with E45K, I75V, D93E
B11: DOM30h-440-55 (protein)
VL: B1 VL with E45K, M89V, D93E

biological target: full length (mature) cynomolgus monkey TSLP, recombinant (cynomolgus monkey); experiment: SPR, biotinylated TSLP on SA chip; all concentrations (footnote 2)

B1 was tested, and the Kd was 4.95 nM.

biological target: pre-existing human anti-VK (HAVK) antibodies; experiment: MSD bridging immunoassay: biotinylated and ruthenylated dAb cross-linked by antibodies in 5% serum of healthy subjects; rate over donors

Binder B2 has a frequency of sera giving a positive signal (above the assay cutpoint) of 6.7%.

biological target: full length (mature) cynomolgus monkey TSLP, recombinant (cynomolgus monkey); experiment: RBA, geometric mean (n = 2)

Binder B2 has an IC50 of 2.05 nM.

biological target: full length (mature) cynomolgus monkey TSLP, recombinant (cynomolgus monkey); experiment: SPR, biotinylated TSLP on SA chip; value excluding 1000 nM concentration

With B1 the Kd was 1.92 nM.

biological target: full length (mature) cynomolgus monkey TSLP, recombinant (cynomolgus monkey); experiment: ELISA RBA, geometric mean

First: B1
Second: B3
The IC50 of the first is 7.4-fold lower: 0.36 nM for the first, 2.65 nM for the second. The first is the more potent here.

First: B4
Second: B5
The IC50 of the first is 1.6-fold lower: 0.83 nM for the first, 1.3 nM for the second.

First: B6
Second: B7
The IC50 of the first is 2.3-fold higher: 0.67 nM for the first, 0.29 nM for the second.

Going from B8 to B9, the IC50 rises from 0.21 nM to 0.87 nM (4.1-fold).

B10 and B11 are the same in IC50: 0.55 nM for the first, 0.55 nM for the second.

biological target: full length (mature) cynomolgus monkey TSLP, recombinant (cynomolgus monkey); experiment: SPR with biotinylated TSLP; mean of two experiments

B2 was tested, and the Kd was 0.511 nM and 0.51 nM.

B2 was tested, and the koff was 0.000774 s⁻¹.

Work on B2 yielded a kon of 1.62e+06 M⁻¹ s⁻¹.

biological target: full length (mature) cynomolgus monkey TSLP, recombinant (cynomolgus monkey); experiment: SPR, biotinylated TSLP on SA chip (Biacore 4000)

B3 and B4 are within 1.5-fold of each other in Kd: 7.81 nM for the first, 5.98 nM for the second.

B5 and B6 are within 1.5-fold of each other in Kd: 5.79 nM for the first, 6.24 nM for the second.

B7 and B8 are within 1.5-fold of each other in Kd: 3.11 nM for the first, 3.42 nM for the second.

B9 and B10 are within 1.5-fold of each other in Kd: 4.29 nM for the first, 2.97 nM for the second.

B11 was tested, and the Kd was 1.61 nM.

biological target: full length (mature) cynomolgus monkey TSLP, recombinant (cynomolgus monkey); experiment: cell-based or functional assay

With B2 the Inhibition of TSLP-induced pSTAT5 in SW756 cells, Geometric Mean IC50 (n = 5) was 4 nM.

Going from B1 to B3, the pSTAT5 assay in SW756 cells, Geometric Mean IC50 rises from 1.6 nM to 11.2 nM.

First: B4
Second: B5
The pSTAT5 assay in SW756 cells, Geometric Mean IC50 of the first is lower: 2.4 nM for the first, 7.28 nM for the second.

First: B6
Second: B7
The pSTAT5 assay in SW756 cells, Geometric Mean IC50 of the first is lower: 2.45 nM for the first, 3.8 nM for the second.

Compared with B8, B9 is lower in pSTAT5 assay in SW756 cells, Geometric Mean IC50: 3.43 nM for the first, 3.36 nM for the second.

First: B10
Second: B11
The pSTAT5 assay in SW756 cells, Geometric Mean IC50 of the first is higher: 4.74 nM for the first, 3.12 nM for the second.
